Data taken from publication PMC8892280 (Proceedings of the National Academy of Sciences of the …, 2022).
Substitutions are numbered along the chain they refer to.

B1: m-TAMRA-labeled Nb42 (VHH)
VHH: QVQLVESGGGLVQAGGSLRLSCAASGDVNYAVGWFRQAPRKEREFVAAINWRGDNTDYTDSVKGRFTISRDNAKNTVYLQMNSLKPEDTAVYYCAAKSAPYWYSDIAPDYWGQGTQVTVSS
B2: Nb17 (VHH)
VHH: QVQLVESGGGLVQPGGSLRLSCAASGSNIGYMAWYRQAPGSQRELVARIASGGSANYADSVKGRFTISRDNVKNTVYLHMNSLKPVDTAVYYCHADAWYNSRWSDYWGQGTQVTVSS
B3: Nb36 (VHH)
VHH: QVQLVESGGGLVQPGGSLRLSCAASGSIRSITTSAWFRQPPGKQRELVAGISSGTSTNYADSVKGRFTISRDNAKNTVYLQMNSLKPEDTAVYYCHVWISGTWYSGQGTQVTVSS
B4: Nb38 (VHH)
VHH: B3 VHH with T32A, F37Y, S56T, V97A, Y104I
B5: Nb1 (VHH)
VHH: QVQLVESGGGLVQAGGSLRLSCVASGRIFSGNAMGWYRQAPGRQRELVAGITNGGYTNYRQFVKGRFTISRDNAKRTVYLQMNSLKPEDTAVYYCNALDREARQVDYWGQGTQVTVSS
B6: Nb6 (VHH)
VHH: QVQLVESGGGLVQAGGSLRLSCAASGSIFSPTAMGWYRQAPGKERELVAGITSGGYTNYRNFARGRFTISRDNAKKTVYLQMNSLNPEDTAVYYCNTLTISWSWGQGTQVTVSS
B7: Nb23 (VHH)
VHH: QVQLVESGGGLVQAGGSLRLSCAASGRTFSRYTMGWFRQAPGKDREFVARITTSGAVTTYADSAKGRFTISRDNAKNTVYLQMNTLKPEDTAVYYCAAGQGQLSSQSRFVDYWGQGTQVTVSS
B8: Nb22 (VHH)
VHH: QVQLVESGGGLVQAGGSLRLSCAASGRTFSSYTMGWFRQAPGKEREFVAAIRWSGGSTYYADSVKGRFTISRDNAKNTVYLQMNSLKPEDTAVYYCAASDRGGFIATSGGWMDYWGKGTQVTVSS
B9: Nb42 (VHH)
VHH: B1 VHH
B10: Nb39 (VHH)
VHH: QVQLVESGGGLVQAGGSLRLSCRASGGTFSTYAMGWFRQVPGKERETVAAVKWSGDMTYYADSVKGRFTISRDNAKNTVYLQMNSLRPEDTAVYYCAARRGLSYYRGPSEYDYWGQGTQVTVSS
B11: Nb40 (VHH)
VHH: QVQLVESGGGLVQPGGSLRLSCVASGTIYAINRMGWYRQAPGKQRELVALITLGGGTNYGDSVKGRFTISRDNAKNTGYLQMNSLKPEDTAVYYCKVESSGYTDVFWGQGTQVTVSS
B12: m-TAMRA-labeled Nb1 (VHH)
VHH: B5 VHH
B13: m-TAMRA-labeled Nb6 (VHH)
VHH: B6 VHH
B14: m-TAMRA-labeled Nb17 (VHH)
VHH: B2 VHH
B15: m-TAMRA-labeled Nb36 (VHH)
VHH: B3 VHH
B16: m-TAMRA-labeled Nb38 (VHH)
VHH: B3 VHH with T32A, F37Y, S56T, V97A, Y104I
B17: m-TAMRA-labeled Nb22 (VHH)
VHH: B8 VHH
B18: m-TAMRA-labeled Nb39 (VHH)
VHH: B10 VHH
B19: m-TAMRA-labeled Nb40 (VHH)
VHH: B11 VHH

molecular target: T1, full-length human LRRK2 (leucine-rich repeat kinase 2) (human, UniProt Q5S007); assay: MST
T1 sequence (Q5S007 whole entry): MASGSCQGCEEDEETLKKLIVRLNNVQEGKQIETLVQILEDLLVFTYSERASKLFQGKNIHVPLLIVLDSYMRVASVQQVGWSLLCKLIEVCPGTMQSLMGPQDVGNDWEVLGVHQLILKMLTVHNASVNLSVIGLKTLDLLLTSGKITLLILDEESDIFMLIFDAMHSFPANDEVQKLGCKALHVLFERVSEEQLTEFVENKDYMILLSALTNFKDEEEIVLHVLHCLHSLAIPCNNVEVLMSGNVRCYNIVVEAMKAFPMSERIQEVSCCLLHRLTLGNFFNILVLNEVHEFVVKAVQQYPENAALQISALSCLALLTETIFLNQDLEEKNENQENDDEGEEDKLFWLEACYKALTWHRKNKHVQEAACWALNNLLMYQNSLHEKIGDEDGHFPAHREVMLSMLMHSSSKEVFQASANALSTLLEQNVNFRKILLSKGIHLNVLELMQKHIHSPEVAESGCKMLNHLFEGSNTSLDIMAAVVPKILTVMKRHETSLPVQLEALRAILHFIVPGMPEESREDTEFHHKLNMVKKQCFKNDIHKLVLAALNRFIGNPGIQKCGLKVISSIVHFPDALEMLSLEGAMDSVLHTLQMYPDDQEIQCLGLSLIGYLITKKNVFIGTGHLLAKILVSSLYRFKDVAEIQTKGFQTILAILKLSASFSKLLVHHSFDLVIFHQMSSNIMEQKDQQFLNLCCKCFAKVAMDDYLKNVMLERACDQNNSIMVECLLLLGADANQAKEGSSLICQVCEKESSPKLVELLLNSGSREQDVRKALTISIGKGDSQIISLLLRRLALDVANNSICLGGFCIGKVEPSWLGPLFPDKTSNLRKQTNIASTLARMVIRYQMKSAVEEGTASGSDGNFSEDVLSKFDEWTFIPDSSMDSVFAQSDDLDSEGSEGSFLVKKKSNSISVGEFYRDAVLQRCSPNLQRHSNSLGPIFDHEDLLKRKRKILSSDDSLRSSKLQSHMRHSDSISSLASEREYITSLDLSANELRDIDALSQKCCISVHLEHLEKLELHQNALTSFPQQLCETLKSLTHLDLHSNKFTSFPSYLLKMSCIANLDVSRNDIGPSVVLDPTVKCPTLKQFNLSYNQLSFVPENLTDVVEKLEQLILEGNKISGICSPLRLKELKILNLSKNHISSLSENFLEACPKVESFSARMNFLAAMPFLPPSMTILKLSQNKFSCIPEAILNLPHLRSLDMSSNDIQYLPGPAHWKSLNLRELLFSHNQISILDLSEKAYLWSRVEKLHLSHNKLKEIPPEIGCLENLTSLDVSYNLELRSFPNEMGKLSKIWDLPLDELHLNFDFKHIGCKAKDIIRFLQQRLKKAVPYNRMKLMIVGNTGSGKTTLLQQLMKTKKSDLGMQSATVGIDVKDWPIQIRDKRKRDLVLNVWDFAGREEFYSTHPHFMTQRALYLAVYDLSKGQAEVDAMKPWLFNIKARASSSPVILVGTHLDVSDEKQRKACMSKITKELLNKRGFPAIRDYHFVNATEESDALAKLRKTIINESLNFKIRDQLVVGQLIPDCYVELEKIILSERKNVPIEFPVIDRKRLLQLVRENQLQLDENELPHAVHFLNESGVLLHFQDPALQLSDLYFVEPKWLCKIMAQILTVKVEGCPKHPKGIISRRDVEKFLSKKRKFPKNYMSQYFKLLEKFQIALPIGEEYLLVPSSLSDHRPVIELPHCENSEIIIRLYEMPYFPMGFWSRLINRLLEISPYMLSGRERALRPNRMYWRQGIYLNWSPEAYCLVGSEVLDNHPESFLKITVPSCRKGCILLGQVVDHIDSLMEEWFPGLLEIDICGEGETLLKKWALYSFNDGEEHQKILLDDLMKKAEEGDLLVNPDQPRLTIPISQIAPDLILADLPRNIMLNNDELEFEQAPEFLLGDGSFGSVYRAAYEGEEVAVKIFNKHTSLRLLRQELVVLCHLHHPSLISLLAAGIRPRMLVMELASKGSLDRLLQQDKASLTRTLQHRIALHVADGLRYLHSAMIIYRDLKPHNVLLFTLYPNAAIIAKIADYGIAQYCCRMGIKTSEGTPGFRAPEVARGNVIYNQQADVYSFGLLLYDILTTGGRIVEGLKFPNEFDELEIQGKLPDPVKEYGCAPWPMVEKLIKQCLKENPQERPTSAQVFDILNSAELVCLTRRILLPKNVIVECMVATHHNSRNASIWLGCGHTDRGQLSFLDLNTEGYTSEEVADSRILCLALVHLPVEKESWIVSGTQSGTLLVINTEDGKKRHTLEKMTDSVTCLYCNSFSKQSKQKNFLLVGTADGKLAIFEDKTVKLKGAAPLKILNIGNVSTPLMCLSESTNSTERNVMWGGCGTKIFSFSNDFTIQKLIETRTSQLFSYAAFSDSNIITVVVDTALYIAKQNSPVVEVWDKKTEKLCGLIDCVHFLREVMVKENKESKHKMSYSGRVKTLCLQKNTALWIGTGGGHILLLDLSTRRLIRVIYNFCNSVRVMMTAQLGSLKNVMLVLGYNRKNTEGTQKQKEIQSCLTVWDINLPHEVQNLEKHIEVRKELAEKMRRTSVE

Row | Binder | Kd [nM]
1 | B1 | 94 ± 30

molecular target: LRRK2 N-terminal armadillo (ARM) domain construct (Homo sapiens, UniProt Q5S007); assay: ELISA
Sequence (Q5S007 whole entry, looked up, tested part not stated): as the sequence (Q5S007 whole entry) above

Row | Binder | binding result
2 | B2 | no binding
3 | B3 | no binding
4 | B4 | no binding

molecular target: T1, full-length human LRRK2 (leucine-rich …); assay: ELISA

Row | Binder | EC50 [nM] | EC50 in presence of Rab8a (20 µM) [nM]
5 | B2 | ~3 | ~5

molecular target: endogenous (mouse) LRRK2 (Mus musculus, UniProt Q5S006); assay: pull-down

Row | Binder | binding result
6 | B5 | binds
7 | B6 | binds
8 | B7 | binds
9 | B2 | binds
10 | B3 | binds
11 | B4 | binds
12 | B8 | binds
13 | B9 | binds
14 | B10 | binds
15 | B11 | binds

molecular target: LRRK2 RocCOR domain construct (Homo sapiens, UniProt Q5S007); assay: ELISA
Sequence (Q5S007 whole entry, looked up, the tested form may be a part): as the sequence (Q5S007 whole entry) above

Row | Binder | binding result
16 | B2 | no binding
17 | B3 | no binding
18 | B4 | no binding
19 | B10 | no binding

molecular target: LRRK2 Roc domain (Homo sapiens, UniProt Q5S007); assay: ELISA
Sequence (Q5S007 1328-1511): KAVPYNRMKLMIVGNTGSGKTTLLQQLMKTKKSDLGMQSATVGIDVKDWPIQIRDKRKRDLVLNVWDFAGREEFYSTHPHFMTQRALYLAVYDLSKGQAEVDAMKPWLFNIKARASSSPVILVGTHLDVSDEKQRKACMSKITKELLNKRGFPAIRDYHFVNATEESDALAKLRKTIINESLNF

Row | Binder | binding result
20 | B2 | no binding
21 | B3 | no binding
22 | B4 | no binding
23 | B10 | no binding

molecular target: LRRK2 C-terminal subdomain of COR (COR-B) (Homo sapiens, UniProt Q5S007); assay: ELISA
Sequence (Q5S007 whole entry, looked up, tested part not stated): as the sequence (Q5S007 whole entry) above

Row | Binder | binding result
24 | B2 | no binding
25 | B3 | no binding
26 | B4 | no binding
27 | B10 | no binding

molecular target: LRRK2 kinase-WD40 (K-WD40) two-domain construct (Homo sapiens, UniProt Q5S007); assay: ELISA
Sequence (Q5S007 whole entry, looked up, tested part not stated): as the sequence (Q5S007 whole entry) above

Row | Binder | binding result
28 | B2 | no binding
29 | B3 | no binding
30 | B4 | no binding
31 | B10 | no binding

molecular target: LRRK2 Roc-COR-Kinase-WD40 (RCKW) domain construct (Homo sapiens, UniProt Q5S007, biotinylated (in the BLI experiment)); assay: BLI
Sequence (Q5S007 whole entry, looked up, tested part not stated): as the sequence (Q5S007 whole entry) above

Row | Binder | Kd [nM] | binding result
32 | B5 | 39 ± 4 | 
33 | B6 | 5 ± 1 | 
34 | B7 | 17 ± 7 | 
35 | B2 |  | no binding
36 | B3 |  | no binding
37 | B4 |  | no binding
38 | B8 | 5 ± 1 | 
39 | B9 | 18 ± 2 | 
40 | B10 |  | no binding
41 | B11 | 2.6 ± 0.3 | 

molecular target: T1, full-length human LRRK2 (leucine-rich …); assay: enzyme kinetics

Row | Binder | Ki [nM] | Kiu^app (apparent Ki for ATP-bound LRRK2) [nM]
42 | B5 | 16000 | 30000
43 | B6 | 5000 | 8000
44 | B7 | 9000 | 72000

molecular target: T1, full-length human LRRK2 (leucine-rich …); assay: MST; remark: another data set of the same source

Row | Binder | Kd [nM]
45 | B12 | 91 ± 28
46 | B13 | 83 ± 24
47 | B14 | 67 ± 24
48 | B15 | 78 ± 25
49 | B16 | 48 ± 11
50 | B17 | 145 ± 55
51 | B18 | 79 ± 19
52 | B19 | 26 ± 10

molecular target: T1, full-length human LRRK2 (leucine-rich …); assay: BLI

Row | Binder | Kd [nM]
53 | B5 | 55 ± 12
54 | B6 | 8 ± 1
55 | B7 | 20 ± 5
56 | B2 | 2 ± 0.3
57 | B3 | 16 ± 8
58 | B4 | 37 ± 4
59 | B8 | 10 ± 1
60 | B9 | 58 ± 18
61 | B10 | 12 ± 3
62 | B11 | 2.5 ± 0.3
